Data from patent US7211395 (dated 2007).
Bridges are numbered along the chain shown (N, C = ends). [ ]: non-standard residue; d: D form. Ahx = NCCCCCC(=O)O

B1: DX-321 (GD...GGGK form) (peptide)
chain: Ac-GDRNMCKFSWIRSPAFCARADPGGGK-NH2
modifications: disulfide 6-17 (inferred); also: fluorescein label, attachment site not given here
B2: DX-997 (peptide)
chain: Ac-GDFSLCWIVDEDGTKWCLPDPGGGK-NH2
modifications: disulfide 6-17 (inferred); also: fluorescein label, attachment site not given here

target: T1, human serum albumin (HSA) (human, UniProt P02768); experiment: FP

Kd [µM] | Binder
8.9 | Ac-AEGTGDFWFCDRIAWYPQHLCGGGK-NH2 (disulfide 10-21 (inferred)) [DX-236 truncation SEQ 42]
8.9 | Ac-FWFCDRIAWYPQHLCEFLDPEGGGK-NH2 (disulfide 4-15 (inferred)) [DX-236 truncation SEQ 39]

target: T1, human serum albumin (HSA); experiment: FP, PBS

Kd [µM] | Binder
> 10 | B1
> 10 | B2
30 | Ac-AGWTTCHIYDWFCSSSGTGGGK-NH2 (disulfide 6-13 (inferred); also: fluorescein label, position not given here) [DX-1175]
> 10 | Ac-GDLRSCFTYYPFTTFSCSPADPGGGK-NH2 (disulfide 6-17 (inferred); also: fluorescein label, position not given here) [DX-1091]
> 10 | Ac-GDSFCVTYIGTWETVCKRSDPGGGK-NH2 (disulfide 5-16 (inferred); also: fluorescein label, position not given here) [DX-1089]
> 10 | Ac-GDNDGCTDTNWSWMFDCPPLDPGGGK-NH2 (disulfide 6-17 (inferred); also: fluorescein label, position not given here) [DX-1165]
153 | Ac-AGLEYCFYQWWGCPHAGTGGGK-NH2 (disulfide 6-13 (inferred); also: fluorescein label, position not given here) [DX-1177]
165 | Ac-GSRSFCMDWPNHRDCDYSAPGGGK-NH2 (disulfide 6-15 (inferred); also: fluorescein label, position not given here) [DX-1171]
> 10 | Ac-GDSPYCKIALFQHFEVCAADDPGGGK-NH2 (disulfide 6-17 (inferred); also: fluorescein label, position not given here) [DX-1167]
185 | Ac-AGYQFCTWDPIFCGWHGTGGGK-NH2 (disulfide 6-13 (inferred); also: fluorescein label, position not given here) [DX-1179]
4 | Ac-GDLRDCQTTWPFTMMQCPNNDPGGGK-NH2 (disulfide 6-17 (inferred); also: fluorescein label, position not given here) [DX-1002]
42 | Ac-GDDSMCITWPFKRPWPCANDPGGGK-NH2 (disulfide 6-17 (inferred); also: fluorescein label, position not given here) [DX-1163]
> 10 | Ac-GSLWDCWLYDCEGNAPGGGK-NH2 (disulfide 6-11 (inferred); also: fluorescein label, position not given here) [DX-1093]
> 10 | Ac-AGKWYCAWDPLVCEIFGTGGGK-NH2 (disulfide 6-13 (inferred); also: fluorescein label, position not given here) [DX-1173]

target: T1, human serum albumin (HSA); experiment: FP, PBS; remark: another data set of the same source

binding result | Binder
no binding | Ac-GDRWFCDSAYWQEIPACARDDPGGGK-NH2 (disulfide 6-17 (inferred); also: fluorescein label, position not given here) [DX-1085]
no binding | Ac-GDSDFCDTPYWRDLWQCNSPDPGGGK-NH2 (disulfide 6-17 (inferred); also: fluorescein label, position not given here) [DX-1087]
no binding | Ac-GDPRSCVEKYYWDVLICGFFDPGGGK-NH2 (disulfide 6-17 (inferred); also: fluorescein label, position not given here) [DX-1169]

target: T1, human serum albumin (HSA); experiment: FP, pH 9.1, 0.14 M NaCl

Kd [µM] | Binder
90 | Ac-AEGTGDDWDCVTRWANRDQQCWGPDPE[Ahx]K(fluorescein)-NH2 (disulfide 10-21 (inferred)) [DX-313]
> 200 | Ac-AEGTGSNHGCWHFSCIWDAPE[Ahx]K(fluorescein)-NH2 (disulfide 10-15 (inferred)) [DX-298]

target: T1, human serum albumin (HSA); experiment: FP, pH 7.4, 0.14 M NaCl

Kd [µM] | Binder
> 200 | Ac-AEGTGDDWQCVKDWANRRRGCMADDPE[Ahx]K(fluorescein)-NH2 (disulfide 10-21 (inferred)) [DX-319]
> 200 | Ac-AEGTGSWKVCDHFFCLSPAPE[Ahx]K(fluorescein)-NH2 (disulfide 10-15 (inferred)) [DX-297]
> 200 | Ac-AEGTGDDWDCVTRWANRDQQCWGPDPE[Ahx]K(fluorescein)-NH2 (disulfide 10-21 (inferred)) [DX-313]

target: T1, human serum albumin (HSA); experiment: FP, pH 6.2, 0.14 M NaCl

Kd [µM] | Binder
> 200 | Ac-AEGTGDDWDCVTRWANRDQQCWALDPE[Ahx]K(fluorescein)-NH2 (disulfide 10-21 (inferred)) [DX-315]
> 100 | Ac-AEGTGSHVGCNNALCMQYAPE[Ahx]K(fluorescein)-NH2 (disulfide 10-15 (inferred)) [DX-296]
> 100 | Ac-AEGTGSFKICDQWFCLMPAPE[Ahx]K(fluorescein)-NH2 (disulfide 10-15 (inferred)) [DX-295]
> 200 | Ac-AEGTGDDWDCVTDWANRHQHCWALDPE[Ahx]K(fluorescein)-NH2 (disulfide 10-21 (inferred)) [DX-317]
> 200 | Ac-AEGTGDDWQCVKDWANRRRGCMADDPE[Ahx]K(fluorescein)-NH2 (disulfide 10-21 (inferred)) [DX-319]
> 200 | Ac-AEGTGSWKVCDHFFCLSPAPE[Ahx]K(fluorescein)-NH2 (disulfide 10-15 (inferred)) [DX-297]
80 | Ac-AEGTGDDWDCVTRWANRDQQCWGPDPE[Ahx]K(fluorescein)-NH2 (disulfide 10-21 (inferred)) [DX-313]
0.5 | Ac-AEGTGSVAWCTIFLCLDVAPEGGGK(fluorescein)-NH2 (disulfide 10-15 (inferred)) [DX-232]
> 200 | Ac-AEGTGSNHGCWHFSCIWDAPE[Ahx]K(fluorescein)-NH2 (disulfide 10-15 (inferred)) [DX-298]

target: T1, human serum albumin (HSA); experiment: FP, pH 7.4, 0.14 M NaCl, 0.1% caprylate

Kd [µM] | Binder
> 100 | Ac-AEGTGDDWDCVTRWANRDQQCWALDPE[Ahx]K(fluorescein)-NH2 (disulfide 10-21 (inferred)) [DX-315]
> 200 | Ac-AEGTGSHVGCNNALCMQYAPE[Ahx]K(fluorescein)-NH2 (disulfide 10-15 (inferred)) [DX-296]
> 200 | Ac-AEGTGSWKVCDHFFCLSPAPE[Ahx]K(fluorescein)-NH2 (disulfide 10-15 (inferred)) [DX-297]
